Assay results from patent publication US20250257126A1 (CAMBRIDGE ENTERPRISE, published 2025).

T1: human LGR5-eGFP transgene (human, UniProt O75473 22-907)
T1 construct: Tested on live or fixed cells and as cell lysates on western blots; also called hLGR5-eGFP; LGR5-GFP
T1 sequence: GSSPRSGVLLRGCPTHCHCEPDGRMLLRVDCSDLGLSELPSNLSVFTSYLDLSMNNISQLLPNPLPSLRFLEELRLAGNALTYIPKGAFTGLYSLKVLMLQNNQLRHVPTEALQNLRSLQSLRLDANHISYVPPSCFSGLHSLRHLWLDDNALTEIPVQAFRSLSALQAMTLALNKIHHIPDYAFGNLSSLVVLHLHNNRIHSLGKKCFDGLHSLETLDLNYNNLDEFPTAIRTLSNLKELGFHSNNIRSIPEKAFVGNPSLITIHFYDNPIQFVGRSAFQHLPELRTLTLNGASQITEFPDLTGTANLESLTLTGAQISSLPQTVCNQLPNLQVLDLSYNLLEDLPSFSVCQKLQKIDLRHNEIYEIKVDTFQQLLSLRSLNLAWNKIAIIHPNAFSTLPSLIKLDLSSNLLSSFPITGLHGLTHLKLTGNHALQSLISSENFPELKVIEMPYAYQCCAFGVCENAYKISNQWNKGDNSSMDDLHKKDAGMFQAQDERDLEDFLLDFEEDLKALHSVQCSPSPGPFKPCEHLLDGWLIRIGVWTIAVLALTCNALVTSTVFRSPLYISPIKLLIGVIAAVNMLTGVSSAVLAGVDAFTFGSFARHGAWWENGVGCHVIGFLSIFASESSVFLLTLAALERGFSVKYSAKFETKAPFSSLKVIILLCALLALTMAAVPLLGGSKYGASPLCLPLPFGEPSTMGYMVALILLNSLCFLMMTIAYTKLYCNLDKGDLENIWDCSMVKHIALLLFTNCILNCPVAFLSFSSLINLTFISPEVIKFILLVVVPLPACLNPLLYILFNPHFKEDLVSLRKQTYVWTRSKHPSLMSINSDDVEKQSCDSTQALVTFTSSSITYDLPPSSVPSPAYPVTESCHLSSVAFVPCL

T2: murine LGR6 transgene (mouse, UniProt Q3UVD5 23-967)
T2 construct: whole, on cells; also called mLGR6
T2 sequence (looked up): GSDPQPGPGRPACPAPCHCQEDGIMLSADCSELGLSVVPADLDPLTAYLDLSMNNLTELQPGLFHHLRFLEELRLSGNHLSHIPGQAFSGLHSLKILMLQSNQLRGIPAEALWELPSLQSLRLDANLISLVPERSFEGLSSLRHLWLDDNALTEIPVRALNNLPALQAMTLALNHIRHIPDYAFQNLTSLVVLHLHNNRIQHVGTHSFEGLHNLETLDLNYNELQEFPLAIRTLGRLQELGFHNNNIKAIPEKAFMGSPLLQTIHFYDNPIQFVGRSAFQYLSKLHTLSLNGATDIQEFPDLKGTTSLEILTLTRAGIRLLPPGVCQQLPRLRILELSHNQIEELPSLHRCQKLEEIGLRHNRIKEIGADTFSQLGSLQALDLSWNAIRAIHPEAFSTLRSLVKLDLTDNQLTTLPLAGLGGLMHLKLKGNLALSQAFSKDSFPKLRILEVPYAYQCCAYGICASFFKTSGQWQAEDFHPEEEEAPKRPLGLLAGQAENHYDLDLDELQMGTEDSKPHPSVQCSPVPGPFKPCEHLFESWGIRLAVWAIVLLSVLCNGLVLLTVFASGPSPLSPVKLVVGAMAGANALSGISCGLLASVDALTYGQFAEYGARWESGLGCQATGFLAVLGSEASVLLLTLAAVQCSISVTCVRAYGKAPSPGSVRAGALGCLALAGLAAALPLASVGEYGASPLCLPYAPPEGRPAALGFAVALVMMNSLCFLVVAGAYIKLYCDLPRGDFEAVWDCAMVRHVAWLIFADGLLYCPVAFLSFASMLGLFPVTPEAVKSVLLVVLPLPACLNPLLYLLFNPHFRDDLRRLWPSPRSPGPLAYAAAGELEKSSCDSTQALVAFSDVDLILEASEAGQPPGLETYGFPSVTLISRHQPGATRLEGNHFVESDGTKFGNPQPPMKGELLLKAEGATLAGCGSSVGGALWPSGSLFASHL


Assays:
[1] = molecular target: T1, human LGR5-eGFP transgene; experiment: western blot of HEK293T lysates expressing the human LGR family transgenes
murine LGR6 transgene = molecular target: T2, murine LGR6 transgene; experiment: indirect immunofluorescence on HEK293T cells expressing human and murine LGR family transgenes (FIG. 14B)

Row | binding result [1] | binding result (murine LGR6 transgene) | Binder
1 | binds | – | hybridoma clone 12 (antibody, V domains shown, Murine antibody; also called antibody 12) VH: EVQLQQSGPELVKPGASVKISCKASGYTFTDYYMNWVKQSHGKSLEWIGDINPNNGGTIYNQKFKGKATLTVDKSSSTAYMELRSLTSEDSAVYYCASGYLFDYWGPGTTLTVSS VL: not shown
2 | – | no binding | α-LGR5 variant 4 (antibody, human IgG1, kappa, V domains shown, Humanized antibody; also called α-LGR5v4; clone 2.4) VH: QVQLVQSGAEVKKPGASVKVSCKASGYTFTNYWMQWVRQAPGQGLEWIGEIDPSDSYTNYNQKFQGRVTLTVDTSTSTAYMELSSLRSEDTAVYYCARSLSGYVDYWGQGTTVTVSS VL: EIVMTQSPATLSLSPGERATLSCRASQDISNRLNWYQQKPGQAVRLLISYRSRRHTGIPARFSGSGSGTDYTLTISSLEPEDFAVYYCQQGNSLPPTFGGGTKLEIKR
